The results in this text go back to patent US10792332B2, “Anti-infective properties of antifreeze protein” (priority 2013, dated 2020).

Where “and” joins values, the source holds several entries; their conditions need not be identical. Equal values may be shown once. Entries after “also recorded” stand apart in the source; their conditions may differ. Ends that are not written are not given here.

The test system of series [1] is S. aureus. Put plainly: Bacterial growth in vitro (OD600). The series is classed as cell-based, Staphylococcus aureus. As to conditions: 0.1 mg/ml in BHI/G, 37° C., SA113 or USA300 JE2. The method, then:
A stationary culture of S. aureus was diluted to OD600=0.01 in BHI medium and supplemented with 0.2 mg/ml recombinant IAFGP-GST, BSA or PBS as control. Bacterial growth was measured over time at OD600 using a spectrophotometer. Growth curves from 5 independent experiments were pooled±SEM.
A stationary culture of S. aureus SA113 or USA300 JE2 was diluted in BHI/G to OD600=0.01 supplemented with 0.1 mg/ml IAFGP-GST, GST, P1, sP1 or media alone. Following static incubation at 37° C. for 24 h bacterial density was measured at OD600 using a spectrophotometer.

Series [2] in a line: Murine subcutaneous catheter implant model. The format is in vivo, C57Bl/6 mice. The following applies: under the conditions used. On the procedure: FIG. 5A depicts bacterial attachment to intravenous catheters that had been incubated in PBS, GST, GST-IAFGP, P2 and P21c before transferring into S. aureus SA113 suspensions. Bacterial attachment was quantified after sonication by plating serial dilutions. Data were pooled from 3 independent experiments (One-Way-ANOVA; *: p<0.05). FIG. 5B presents bacterial attachment to intravenous catheters that had been incubated in PBS, P1 or sP1 and implanted subcutaneously on the dorsal flanks of C57Bl/6 mice. 72 hrs after catheter inoculation with 5×10^5 CFU S. aureus SA113 the catheters were removed and the attached bacteria were quantified by plating serial dilutions. […]
Seven days after catheter inoculation with S. aureus SA113, the catheters were removed, and the attached bacteria were quantified by plating serial dilutions.
(§1) Cecal ligation and puncture surgery was performed as described^26,41 Mice were anesthesized using isoflurane inhalation and the cecum was exteriorized through a peritoneal midline incision. […] Body surface temperature was measured dorsally using an infrared thermometer. A retro-orbital blood sample was taken daily and the cytokine levels of TNF-α, IL-6, IL12b and MCP-1 were measured using enzyme-linked immunosorbent assay (ELISA) kits (eBiosciences, San Diego, Calif.). […] The number of attached bacteria was determined by plating serial dilutions on agar plates.

The test system of series [3] is S. aureus. Put plainly: Static biofilm assay (safranin stain). The series is classed as cell-based, Staphylococcus aureus. The following applies: preliminary data. On the procedure: Biofilm assays were performed as described^38. Briefly, planktonic overnight cultures of S. aureus were diluted in glucose-supplemented tryptic soy broth or brain-heart-infusion broth (1% glucose; TSB/G or BHI/G) to OD600=0.015 and distributed into 96 well plates (Corning, NC). After an 18 h incubation at 37° C. bacterial growth in each well was confirmed by the measurement of OD600 using a spectrophotometer (BioTek, VT). The supernatant was discarded and the wells were washed with water twice. Bacteria associated with the well surface were dried and stained with safranin. The dye was then dissolved in 33% acetid acid and quantified at OD415 nm using a spectrophotometer (BioTek, VT). Bacterial attachment to catheter materials pre-incubated with peptides was investigated. Vialon™ catheters (BD Biosciences, NJ) were incubated for 18 h in 0.1 mg/ml peptides dissolved in PBS, washed with PBS and incubated in bacterial suspensions for 24 h. Following removal of non-adherent bacteria with repeated washing, adherent bacteria and biofilms were dissociated using sonication in PBS. Bacterial titers were quantified by plating serial dilutions on agar plates and were calculated per as CFU per catheter.

Series [4] has as its system S. aureus SA113. Put plainly: Bacterial attachment to pre-incubated intravenous catheters in vitro. The format is cell-based, Staphylococcus aureus. On the procedure:
FIG. 5A depicts bacterial attachment to intravenous catheters that had been incubated in PBS, GST, GST-IAFGP, P2 and P21c before transferring into S. aureus SA113 suspensions. Bacterial attachment was quantified after sonication by plating serial dilutions. Data were pooled from 3 independent experiments (One-Way-ANOVA; *: p<0.05). FIG. 5B presents bacterial attachment to intravenous catheters that had been incubated in PBS, P1 or sP1 and implanted subcutaneously on the dorsal flanks of C57Bl/6 mice. 72 hrs after catheter inoculation with 5×10^5 CFU S. aureus SA113 the catheters were removed and the attached bacteria were quantified by plating serial dilutions. CFU data were pooled from 3 independent experiments (One-Way-ANOVA with Tukey's post-test; **: p<0.01). […] S. aureus are indicated by black triangles, biofilm matrix are indicated by empty triangles.
Biofilm assays were performed as described^38. Briefly, planktonic overnight cultures of S. aureus were diluted in glucose-supplemented tryptic soy broth or brain-heart-infusion broth (1% glucose; TSB/G or BHI/G) to OD600=0.015 and distributed into 96 well plates (Corning, NC). […] The dye was then dissolved in 33% acetid acid and quantified at OD415 nm using a spectrophotometer (BioTek, VT). […] Bacterial titers were quantified by plating serial dilutions on agar plates and were calculated per as CFU per catheter.

For series [5], the system named is S. aureus SA113. Put plainly: S. aureus microinjection challenge of iafgp-expressing fruit flies. The series is classed as in vivo, D. melanogaster. On the procedure:
FIGS. 3A-3E present transgenic expression of iafgp in fruit flies and susceptibility of transgenic flies to S. aureus challenge in vivo. […] Survival data were pooled from 6 independent experiments (Log-rank test; p<0.001). […] Bacterial colonization of individual flies was determined by plating serial dilutions. Data was pooled from 3 independent experiments (One-Way-ANOVA with Tukey's post-test; ***: p<0.001; **: p<0.01; *: p<0.05). FIG. 3C presents PNAG production in iafgp-transgenic and control flies challenged with S. aureus SA113. PNAG levels of pools of 5 flies were assessed at different time points by immunoblot. Average signal intensities of 3 independent experiments±SEM with representative immunoblot images below are shown (Two-Way-ANOVA with Sidak's post test;[…]). FIG. 3D presents PNAG production in iafgp-transgenic and control flies challenged with S. aureus SA113. Paraffin sections of whole flies were stained for bacteria and PNAG. Black triangles point to bacteria, empty triangles indicate PNAG staining. […] Survival data were pooled from 4 independent experiments (Log-rank test; not significant).
Iafgp-expressing and mCherry-expressing flies were generated as described^13. D. melanogaster flies were maintained using standard procedures^39. The fly colony was sustained at 21-23° C. Following infection, flies were incubated at 29° C. to increase UAS-mediated transgene expression. Five to 9 day old females were used for experiments. Twenty to 30 flies per vial were infected by microinjection as reviewed in^40 and survival was monitored. Microinjection was performed into the thorax below the wing using a Nanojet microinjector (Drummond Scientific, PA). Bacteria in stationary growth phase were diluted in PBS to OD600=0.01 or OD600=0.1 and 9.2 nl were injected, corresponding to an infectious dose of 50-100 to 500-1000 CFU per fly respectively. For CFU analysis individual flies were homogenized in […] using a bullet blender (Nextadvance, NY) and steel beads. Serial dilutions were plated on brain-heart-infusion agar plates and incubated at 37° C. overnight. Endogenous fly bacteria only grew to pinprick-size overnight, allowing visual distinction of the fast-growing bacteria used for infection (data not shown). mRNA was isolated from individual flies homogenized in […] using RNAeasy kit (Qiagen, Hilden, Germany). Following DNAse digestion with Turbo DNA-free Kit (Ambion/Life Technologies, NY) RNA was reverse-transcribed with iScript cDNA synthesis kit (BioRad, CA) and gene expression was quantified by qRT-PCR using iQ SYBR Green Supermix (BioRad, CA).

The test system of the next series is Listeria monocytogenes. Put plainly: Needle prick infection of iafgp-expressing fruit flies. The format is in vivo, D. melanogaster. The source says: (§2) A 0.6 μm tungsten needle was dipped into a 1:10 diluted stationary culture of L. monocytogenes and flies were pricked in the right lateral side of the thorax. Fly survival was monitored visually over the course of infection. Uninfected controls (n.i.; n=40) were pricked with a needle dipped into PBS. Data were pooled from 2 independent experiments (Log-rank test; p<0.005). […] Groups of 20-25 flies were transferred into vials containing only a piece of absorbing tissue. Stationary bacterial cultures, resuspended in 4% sucrose and diluted 2-fold were used to soak the paper, controls received only sucrose solution. Every 3 days the flies were transferred into new vials with freshly soaked tissue, and bacterial survival was measured. […] Uninfected controls (n.i.; n=40) were housed in vials with 4% sucrose. Data were pooled from 2 independent experiments (Log-rank test; p<0.001/p<0.001).

The test system of a further series is Pseudomonas entomophila. Put plainly: Oral infection of iafgp-expressing fruit flies. The series is classed as in vivo, D. melanogaster.
From the text: as §2

In the next series the test system is Serratia marcescens. Put plainly: Oral infection of iafgp-expressing fruit flies. The format is in vivo, D. melanogaster.
From the text: as §2

Another series concerns polymicrobial sepsis. Put plainly: Cecal ligation and puncture (polymicrobial sepsis) in iafgp-transgenic mice. The format is in vivo.
From the text: Iafgp was constitutively expressed under control of the chicken β-actin promoter in an iafgp-transgenic mouse line. The promoter region was excised from pβAct-CAT 9 (ATCC, VA) using XhoI and HindIII and subcloned into the pEGFP-1 vector (Clontech, CA). EGFP was removed from pβAct-EGFP-1 by digestion with BamHI and NotI resulting in pβAct-1. Iafgp was then PCR-amplified using oligomers iafgp BamHI F and iafgp NotI R, introducing the corresponding restriction sites. The PCR fragment was digested and cloned into linearized pβAct-1, resulting in pβAct-iafgp. For microinjection, the transgene fragment containing the β-actin promoter and iafgp gene was excised from pβAct-iafgp by digestion with XhoI and AflII restriction enzymes and gel purified. Microinjection was performed in […] (C57BL/6×C3H) and mice were genotyped by PCR analysis of tail biopsies using IAFP4qRTF and IAFP4qRTR. mRNA expression of iafgp was confirmed in multiple tissues using the same primers for qRT-PCR. Transgenic iafgp-expressing mice were backcrossed for 8 generations to C57Bl/6 mice (Charles River, Mass.). Heterozygous experimental mice of 6-12 weeks were age- and sex-matched with wild-type littermates and wild-type C57Bl/6 as control. All mice were housed at 20-22° C. with water and food ad libitum. Animal handling was performed according to protocols approved by the Yale animal care and use committee.
as §1, with “incision. Seventy-five percent of the cecum was ligated and punctured through and through with a 21G hypodermic needle.” for “incision.”

For a further series, the system named is S. aureus USA300 JE2. Description: Intranasal MRSA challenge of iafgp-transgenic mice. The series is classed as in vivo. As to conditions: iafgp-transgenic mice vs controls. On the procedure: Iafgp-expressing mice were infected with USA300 JE2. 1.2×10^8 CFU logarithmic growth phase bacteria per mouse were applied intranasally in 50 μl PBS and murine survival was monitored.

The mark [6] stands for this setting: iafgp-expressing flies vs controls.

“AAAAATATAAARRAAAAPTTAKTT [sP1, P2 randomized, soluble, negative control]”: the “bacterial density/viability at OD600 after 24 h static incubation” value with S. aureus [1] is “Neither proteins nor peptides affected bacterial growth”.
For the molecule PARKARAATAATAATAATAATAAT [P1], the toxicity in vivo entry in [2] is on record as “no signs of toxicity”.
As for “PARKARAATPATPATAATPATAAT (listed as Ixodes scapularis) [P0]”, the anti-biofilm activity result in the series on S. aureus [3] is on record as “anti-biofilm activity has been identified”.

B1: IAFGP: Ixodes scapularis anti-freeze glycoprotein, 251 amino acids, SEQ ID NO: 3; also expressed transgenically in flies and mice (protein, listed as Ixodes scapularis)
chain: MTTLLRLTILIVAVAGVLGSSKRAARAATPATAATPATPATAATPAIAATPATAATPATAATPARKARAATPATPATPATAATPATAATPARKARAATAATPATPATAATPARKARAATPATPATAATPATAATPARKARAATPATPATAATPATAATPARKARAATPATPATAATPATAATPARKARAATPATPATAATAATPARKARAATAATPATPATAATPARKARAATPATAATAATPATAATAAA
Turning to B1, the “bacterial attachment / biofilm formation on intravenous catheters in vitro” value with S. aureus SA113 [4] is “altered bacterial attachment; also recorded: reduced biofilm formation”. For the same molecule, the “lowering of catheter-associated bacteria in comparison to untreated controls” value in the series with S. aureus SA113 [4] (catheters incubated in protein or peptide solution, then S. aureus suspension) stood at 9 fold. Further, the “pathogen titers in flies over the course of infection” value in the series with S. aureus SA113 [5] (iafgp-expressing flies) is “remained stable over the course of infection”. Besides, in the series on S. aureus SA113 [5] (setting [6]), the “PNAG quantity during S. aureus infection of flies” value is “reduced” and the “fly survival after S. aureus microinjection” value is given as “enhanced survival”. The “effect of IAFGP on flies challenged with PNAG-deficient S. aureus ΔicaADBC mutant” value in the series with S. aureus SA113 [5] (ΔicaADBC mutant) was “completely abrogated”. Also, the “fly survival after L. monocytogenes infection” value in the series with Listeria monocytogenes was “increased fly survival”. For the same molecule, the “fly survival after P. entomophila infection” value in the series on Pseudomonas entomophila was “increased fly survival”. For the same molecule, the “fly survival after S. marcescens infection” value in the series with Serratia marcescens is “increased fly survival”. The “general health and activity (disease score)” value in the series on polymicrobial sepsis (24-36 h after surgery, transgenic vs control mice) was “significantly better general health and activity”. In addition, in the series with polymicrobial sepsis (iafgp-expressing mice), the “extended (average) survival compared to controls after CLP” value is 40% and 35%. Also, in the series on polymicrobial sepsis (iafgp-expressing mice vs controls), the “hypothermia and serum cytokine release of MCP-1, TNF-α, IL6 and IL12p40” value is recorded as “delayed”. Besides, in the series with S. aureus USA300 JE2, the “survival after intranasal MRSA challenge” value is reported as “increased survival; also recorded: enhanced survival”.
